Values of other authors as cited in paper PMC3046808.

Molecular target: Gag (Human immunodeficiency virus 1) (UniProt O93182)

Sequence of Gag (O93182 2-500): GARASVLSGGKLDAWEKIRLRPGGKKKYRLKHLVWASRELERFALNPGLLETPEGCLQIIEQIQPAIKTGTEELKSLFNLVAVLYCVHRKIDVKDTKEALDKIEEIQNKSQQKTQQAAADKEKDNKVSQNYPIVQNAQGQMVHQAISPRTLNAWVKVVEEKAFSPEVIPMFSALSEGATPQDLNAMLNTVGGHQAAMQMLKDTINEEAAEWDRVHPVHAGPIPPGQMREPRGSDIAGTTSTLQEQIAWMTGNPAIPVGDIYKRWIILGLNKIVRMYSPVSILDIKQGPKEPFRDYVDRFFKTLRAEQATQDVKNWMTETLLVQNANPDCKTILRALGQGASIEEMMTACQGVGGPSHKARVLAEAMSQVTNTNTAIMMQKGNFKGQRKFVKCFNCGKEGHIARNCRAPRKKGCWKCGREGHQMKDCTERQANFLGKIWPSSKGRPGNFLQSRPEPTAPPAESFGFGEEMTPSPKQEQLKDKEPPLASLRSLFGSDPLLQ

Gag (from UniProt O93182)
Kd: 3.9 µM
